# According to the nanobody polyreactivity screen of Harvey et al. (2022):
# Assay: yeast display, Sf9 membrane polyspecificity reagent, FACS + sequencing; frameworks hold sequencing errors
# Outline: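 In a synthetic yeast display library (Saccharomyces cerevisiae BJ5465), nanobody expression was induced with galactose for 36–48 hours. FACS gates were set low and high (top ~1%) using anti-HA fluorescence for expression and streptavidin fluorescence for binding of the Sf9 membrane reagent. Each polyreactivity label is drawn from the gate of origin.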
row,Sequence,polyreactivity (PSR sort gate)
1,QVQLVESGGGLVQAGGRLRLICAASGRIYGYNTMGWYRQAPGKERDFDAAINSGGRTYYADSVKGRFTISRDNAKNTVYLQMNSLKPEDTAVYYCAAGKGRWISGLYYGARYDYWGQGTQVTVSS,high polyreactivity
2,QVQLVESGGGLVQAGGRLRLICAASGSILRYAMGWYIQAPGKERELVAAISYGGGSTYYADSVKGRFTISRDNAKNTVYLQMNSLKPEDTAVYYCNARQYVWYPYEYWGQGTQVTVSS,high polyreactivity
3,QVQLVESGGGLVQAGGRLRLNCAASVITFPYNAMGWYRQATGKERELVAAITRSGASTYYADSVKGRFTISRDNSKNTVYVQMNSLKPEDTAVYYCAAKVIGRPRPYYYWGQGTQVTVSS,high polyreactivity
4,QVQLVESGGGLVQAGGRLRLSCAASGFIFAWYAMGWYRQAPGKEMELVAAITWSAGSTYYADSVKGRFTISRDNAKNTVFLQMNSLKPEVTAVYYCAADAWYYSIYRGGDFWGQGTQVTVSS,low polyreactivity
5,QVQLVESGGGLVQAGGRLRLSCAASGFIFDSNTMGWYRQAPGKERELVAGITRRGGSTYYADSVKGRFTISRDNAKNSVYLQMNSLNPEDTAVYYCATAGTYTGGEGYWGQGTQVTVSS,high polyreactivity
6,QVQLVESGGGLVQAGGRLRLSCAASGFIFPVYAMGWYRQAPGKERELVASITTGGSTNYADSVKGRFTISRDNAKNTVYLQMNSLKPEDTAVYYCNKDTPASLANQYNYWGQGTQVTVSS,low polyreactivity
7,QVQLVESGGGLVQAGGRLRLSCAASGFIFSNYAMGWYRQAPGKERELVAAISKSGGGTSYADSVKGRFTISRDTAMNTVYLQMNSLKPEDPAGYYCAARVRQIRVDYWGQGTQVTVSS,high polyreactivity
8,QVQLVESGGGLVQAGGRLRLSCAASGFIFYYNTMGWYRQAPGKERELVAAISSGGRTYYADSVKGRFTISRDNAKNTVYLQMNSLKPEDTAVYYCNVVTYVKYGYWGQGTQVTVSS,high polyreactivity
9,QVQLVESGGGLVQAGGRLRLSCAASGFIIVYYAAMGWYRQAPGKERELVAAISSRDDSTTYADSVKGRFTISRDNAKNTVYLQMNSLKPEDTAVYYCNADLGGFYYVYAYNYWGQGTQVTVSS,low polyreactivity
10,QVQLVESGGGLVQAGGRLRLSCAASGFSFSLYGMGWYRQAPGKERELVAAIRSGGSPNYADSVKGRFTISRDNAKNTVYLQMNSLKPEDTAVYYGATDIHSVHNNRDKHDYDYWGQGTQETVSS,low polyreactivity
11,QVQLVESGGGLVQAGGRLRLSCAASGFTFNWYDMGWYRQAPGKERELVATISTGGGTNYADSVKGRFTITRYNAKNTVYLQMNSLKPEDSAVYYCAADGSAGYLWGYDFEGVYWGQGTQVTVSS,high polyreactivity
12,QVQLVESGGGLVQAGGRLRLSCAASGFTFRRYTMGWYRQAPGKERELVAVISASGGSTYYADSEKGRFTISRDNAKNTVYLQMNSLKPEDTAVYYCNAVGTPYGLDEYWGQGTQVTVSS,high polyreactivity
13,QVQLVESGGGLVQAGGRLRLSCAASGFTFVRNTMGWYRQAPGKDRELVAAISRSGGSTYYADSVKGRFTISRDNAKNTVYLQMNSLKPEDTAVYYCNAYRYLHYDWGQGTQVTVSS,high polyreactivity
14,QVQLVESGGGLVQAGGRLRLSCAASGFTIPYKAMGWYRQAPGKERELVAAISRSGTRTYYADSVKGRFTISRDNAKNTLYIQMNSLKPEDTAVYYCAKDTIGGASPHYYWGKGTQVTVSS,high polyreactivity
15,QVQLVESGGGLVQAGGRLRLSCAASGITFTYYSMGGYRQAPGKERELVAAITDDGNTNYADSVKGRFTISRDNAKNTVYLQMNSLIPEDTAVYYCAADLLGIPDYEYWGQGTQVTVSS,low polyreactivity
16,QVQLVESGGGLVQAGGRLRLSCAASGNTFDYYAMGWYRPAPGKERELVAAITRGGSTNYADSVKGRFTISRDNAKNTVYLQMNSLKPEDTAVYYCAAEQRAPRFADYDYWGQGTQVTVSS,low polyreactivity
17,QVQLVESGGGLVQAGGRLRLSCAASGRIFGYYAIGWYRQAPGKERELVARISRGGSTYYADSVKGRFTISRDNAKNTVYLQMNSLKPEETAVYSCAATRSGYTSYTDDSGGQGTQVTVSS,high polyreactivity
18,QVQLVESGGGLVQAGGRLRLSCAASGRIFKWYPMGLYRQAPGKERELVAAITSGGSTYYADSVKGRFTISRDNAKNTVYLQMNSLNPEDTAVYYCAAPVYLYGTVGRGDYWGQGTQVTVSS,high polyreactivity
19,QVQLVESGGGLVQAGGRLRLSCAASGRIFRWNPMGWYRPAPGIERELVAAISASGGRTNYADSVKGRFTISRDNAKNTVYLQMKSLKPEDTAVYYCAAGPVYYYVPIGYDYWGQGTQVTVSS,high polyreactivity
20,QVQLVESGGGLVQAGGRLRLSCAASGRIFSDYAMGWYRQAPGKERELVAVITRGGDNTHYADSVKGRFSISRDNAKNTVYLQMNSLKAEDTAVYYCAAGFVYFRLRRYFWRDYCGQGTQVTVSS,low polyreactivity
21,QVQLVESGGGLVQAGGRLRLSCAASGRIFSYNAMGWYRQAPGKERELVAGITSGGRTYYADSVKGRFTISRDNAKNTVYLLIYSLKPEDTAVYYCGARYVPARSGYYYWGQGTQVTVSS,high polyreactivity
22,QVQLVESGGGLVQAGGRLRLSCAASGRIFYWNVMGWYRPAPGKERELVAAISSSGASTSYADSVKGRFTISRDNAKNTVYLQMNSLKPEDTAVYYCAARTRRNYRQYNYWGQGTQVTVSS,high polyreactivity
23,QVQLVESGGGLVQAGGRLRLSCAASGRILRWYTMGWYRQAPGKERELVAAITSRGGSTYYADSVKGRFTISRDNAKNTVYLQMNSLKPEDTAVYYCAAVSWYTRLTYYYWGQGTQVTVSS,high polyreactivity
24,QVQLVESGGGLVQAGGRLRLSCAASGRILYLNAMGWYRQAPGKERELVAAITKSGGSTYYADSVKGRFTISRDNAKNTVYLQMNSLKPEDTAVYYCAAEWVYYDYWQRFLYIDYDYWGQGTHVTVSS,high polyreactivity
25,QVQLVESGGGLVQAGGRLRLSCAASGRTCGYYTMGWYRQAPGKERELVATIRWSGGSTYADSVKGRFTISRDNAKNTVYLQMNSLKPEDTAVYYCAARNRIKWGQGTQVTVSS,high polyreactivity
26,QVQLVESGGGLVQAGGRLRLSCAASGRTFARYDRGWYRQAPGKELVLVAGMNGDGGSTNYADSVKGRFTISRDNAKNSVYLQMNSLKPEDTAVYYCNVVQEDRTLHVSIKQLSDHWGQGTQVTVSS,low polyreactivity
27,QVQLVESGGGLVQAGGRLRLSCAASGRTFATNTMGWYIQAPGKEREFVAAISRGGVSTSYADSVKGRFTISRDNAKNTVYLQMNSLKPEDTAVYYCAANHYGFNRNHRHTYVYWGQGTQVTVSS,high polyreactivity
28,QVQLVESGGGLVQAGGRLRLSCAASGRTFAYYAMGWSRQAPGKERELVAAITRGGSTYYADSVKGRFTISRDNAKNTVYLQMNSLKPEDTAVYYCAAATSPYQDDYWGQGTQVTVSS,low polyreactivity
29,QVQLVESGGGLVQAGGRLRLSCAASGRTFGYNFMGWYRQAPGKERELVAAISSSGGSTYYADSVKGRFTISRDNGMNTVYLQMNSLKREDTAVYYCNARRGRASGMDYWGQGTQVTVSS,high polyreactivity
30,QVQLVESGGGLVQAGGRLRLSCAASGRTFKDYAMGWYRQAPGKERELVAGINGSGGSTYYADSVKGRFTISRDNAKNTVYLQMNSLKPEDTAVYYCNADFGYWWDGRRYDYWGQGTQVTVSS,low polyreactivity
